Key:
[1] = biological target: Taxol-stabilized microtubules from porcine brain tubulin (porcine) (UniProt P02550); assay: co-sedimentation; 200 nM LRRK^RCKW with various concentrations of taxol-stabilized microtubules, 10 minutes at room temperature, 20 mM Hepes pH 7.4, 110 mM NaCl (also 100 and 150 mM NaCl), 0.5 mM MgCl2, 0.5 mM TCEP, 5% glycerol, 20 μM GDP, 20 μM taxol; pelleted at 108,628 g; depletion from the supernatant on SYPRO-Red gels
[2] = biological target: Subtilisin-treated taxol-stabilized microtubules (C-terminal tubulin tails cleaved), labeled with Alexa Fluor 488 and biotin (bovine) (UniProt Q6B856); assay: widefield fluorescence microscopy of labeled protein on tethered microtubules; Alexa Fluor 488-labeled microtubules tethered to a coverslip by biotin-streptavidin; TMR-labeled LRRK^RCKW (6.25 nM–50 nM; 100 nM for the NaCl series) incubated 5 minutes in 20 mM Hepes pH 7.4, 80 mM NaCl, 0.5 mM MgCl2, 0.5 mM TCEP, 5% glycerol, 20 μM GDP; also increasing sodium chloride
Sequence of Subtilisin-treated taxol-stabilized microtubules (C-terminal tubulin tails cleaved), labeled with Alexa Fluor 488 and biotin (bovine) (Q6B856 whole entry, looked up): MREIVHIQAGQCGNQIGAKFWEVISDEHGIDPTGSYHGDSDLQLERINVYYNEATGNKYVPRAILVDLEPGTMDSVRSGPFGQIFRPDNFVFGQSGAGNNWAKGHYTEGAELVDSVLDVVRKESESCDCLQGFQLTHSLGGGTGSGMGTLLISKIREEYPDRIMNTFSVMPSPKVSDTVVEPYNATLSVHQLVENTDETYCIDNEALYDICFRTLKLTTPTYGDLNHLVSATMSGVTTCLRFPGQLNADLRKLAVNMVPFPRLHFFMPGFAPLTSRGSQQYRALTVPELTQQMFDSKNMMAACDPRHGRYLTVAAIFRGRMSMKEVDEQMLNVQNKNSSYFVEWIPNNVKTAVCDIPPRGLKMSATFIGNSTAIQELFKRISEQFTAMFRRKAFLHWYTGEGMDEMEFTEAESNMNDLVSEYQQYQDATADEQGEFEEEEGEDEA

Sequence of TMR-LRRK2^RCKW (LRRK2^RCKW randomly labeled with BODIPY TMR-X) (Q5S007 1327-2527): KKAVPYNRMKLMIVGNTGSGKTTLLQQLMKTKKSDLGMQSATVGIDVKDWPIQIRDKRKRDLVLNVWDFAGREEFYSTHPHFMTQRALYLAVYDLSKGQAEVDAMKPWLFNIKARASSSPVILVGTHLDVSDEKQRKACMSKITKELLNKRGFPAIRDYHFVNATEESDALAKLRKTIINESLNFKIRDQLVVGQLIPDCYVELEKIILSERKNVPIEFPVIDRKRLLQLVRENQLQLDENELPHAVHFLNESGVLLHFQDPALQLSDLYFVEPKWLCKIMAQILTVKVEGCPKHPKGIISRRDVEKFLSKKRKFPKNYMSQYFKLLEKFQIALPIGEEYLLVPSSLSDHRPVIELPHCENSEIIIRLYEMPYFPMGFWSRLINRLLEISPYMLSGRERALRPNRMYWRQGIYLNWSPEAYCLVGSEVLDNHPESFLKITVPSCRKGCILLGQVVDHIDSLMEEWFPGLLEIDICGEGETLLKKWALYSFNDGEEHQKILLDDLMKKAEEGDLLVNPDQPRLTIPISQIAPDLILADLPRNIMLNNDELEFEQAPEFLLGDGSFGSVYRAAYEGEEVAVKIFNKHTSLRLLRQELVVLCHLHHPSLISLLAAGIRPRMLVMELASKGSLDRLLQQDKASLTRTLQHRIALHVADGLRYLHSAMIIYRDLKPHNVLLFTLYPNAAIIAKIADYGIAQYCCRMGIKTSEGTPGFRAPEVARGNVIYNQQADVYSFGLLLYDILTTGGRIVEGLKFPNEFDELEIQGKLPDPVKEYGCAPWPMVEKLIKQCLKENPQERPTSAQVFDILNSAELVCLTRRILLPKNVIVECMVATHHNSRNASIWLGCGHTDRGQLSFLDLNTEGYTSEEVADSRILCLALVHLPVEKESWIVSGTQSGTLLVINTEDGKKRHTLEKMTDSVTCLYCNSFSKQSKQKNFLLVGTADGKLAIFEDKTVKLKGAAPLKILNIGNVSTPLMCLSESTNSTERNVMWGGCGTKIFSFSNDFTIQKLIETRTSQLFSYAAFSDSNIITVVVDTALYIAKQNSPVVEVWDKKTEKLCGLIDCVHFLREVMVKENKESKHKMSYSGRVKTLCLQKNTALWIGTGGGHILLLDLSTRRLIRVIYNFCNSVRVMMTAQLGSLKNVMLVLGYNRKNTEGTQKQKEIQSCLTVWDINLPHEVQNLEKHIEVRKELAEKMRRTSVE

reduction of pelleting with microtubules against WT LRRK2^RCKW [1] [%] | decrease of microtubule binding against untreated microtubules [2] [%] | Substance
50 |  | LRRK2^RCKW-R1731D (from UniProt Q5S007 1327-2527) (domain or fragment)
 | 50 | TMR-LRRK2^RCKW (LRRK2^RCKW randomly labeled with BODIPY TMR-X) (from UniProt Q5S007 1327-2527) (domain or fragment)

Source: publication PMC9758056
